Results on 17 sequences are retold here after a protein production outcome set (Wang et al. 2014).

A short description of the series: label from the status in PepcDB records.
Take “MAHHTKETMELIKELVSIPSPSGNTAKIINFIENYVSEWNVETKRNNKGALILTVKGKNDAQHRLLTAHVDTLGAMVKEIKPDGRLSLSMIGGFRWNSVEGEYCEIETSSGKTYTGTILMHQTSVHVYKDAGEAKRDEKNIEVRIDERVFSADEVRELGIEVGDFVSFDPRVQITESGYIKSRHLDDKVSVAILLKLIKRLQDENVTLPYTTHFLISNNEEIGYGGNSNIPEETVEYLAVDMGALGDGQASDEYTVSICAKDSSGPYHYALRKHLVELAKTNHIEYKVDIYPYYGSDASAAIRAGFDVKHALIGAGIDSSHAFERTHESSIAHTEALVYAYVMSNLIEE”: the protein production result is given as “not failed”.

For the sequence “MAHRTWGGRFGEGPDALAARFNASLAFDRALWREDLWQNRVHARMLHAVGLLSAEELEAILKGLDRIEEEIEAGTFPWREELEDVHMNLEARLTELVGPPGGKLHTARSRNDQVATDLRLYLRGAIDELLALLLALRRVLVREAEKHLDPLYVLPGYTHLQRAQPVLLAHWFLAYYEMLKRDAGRLEDAKERLNESPLGAAALAGTGFPIDRHFTARELGFKAPMRNSLDAVASRDFALEVLSALNIGMLHLSRMAEELILYSTEEFGFVEVPDAFATGSSIMPQKKNPDILELIRAKAGRVLGAFVGLSAVVKGLPLAYNKDLQEDKEPLLDALATYRDSLRLLAALLPGLKWRRERMWRAAEGGYTLATELADYLAEKGLPFREAHHVVGRLVRRLVEEGRALKDLTLEELQAHHPLFAEDALPLLRLETAIHRRRSYGGTAPEAVRERLEEAKKEVGLD”, the protein production result is on record as “not failed”.

Regarding “MAHSGDNHSSEFCMLRSLSASIGADPLLVQGAGGNTSIKQAGVLWIKASGTWLKNARDDEIMVPVALAPLLDAVSHRSPAAEAAGQFTLADLNPRQLRPSIETTVHALLPQKIVVHVHCVETISIAVQANAEALLEGRLRGLDWAFVPYRRPGLPLAQAIAERLKPATNVLVLGNHGLVVAADTVAEAALLLQRVTGLLARQPRPAPPPDLDALLRLAAGSDYRLPASTAAHAVATDLASCRIAASGSLYPDHVIFLGVGSVIAGPGENAAAVVARTAAAPTSILFPGKGVLMRREANAGAEAMARCLADVVARVDGAARVNYLSPKENAELLNWDAEKYRQQLNREGATLQLEHHHHHH”, the protein production result is on record as “failed”.

For the sequence “MAIAFHTFLLQLLLFFFASFAEANDSRKTYLVQMKVGGHRYGSSSGHQELLGEVLDDDSYKESFTGFSASLTPRERQKLMSKTTTVSSRRREVLEVSRSRNLKLQTTRSWDFMNLTLKAERNPENESDLVVAVIDSGIWPYSELFGSDSPPPPGWENKCENITCNNKIVGARSYYPKKEKYKWVEEKSVIDVTGHGTHVASIVAGRKVEKAGYFGLAEGTMRGGVPNAKIAVYKTCWRVIRKNGREDSVCREDNILKAIDDAIADKVDIISYSQGFQFTPLQKDKVSWAFLRALKNGILTSAAAGNYANNGKFYYTVANGAPWVMTVAASLKDRIFETKLELEGEDKPIIVYDTINTFETQDSFYPLLNEKAPPESTRKRELIAERNGYSILSNYDEKDKGKDVFFEFAQINLLDEAIKEREKGAIVLGGKSYDFNESIKLQFPIASIFLDEQKKGKLWDYYKKDQSKERLAKIHKTEEIPREEGWVPTVAHLSSRGPNCDSFLANILKPDIAAPGLDIIAGWPENVKLSSDRPANDYRHLRFNIMSGTSMACPHATGLALYLKSFKRWSPSAIKSALMTTSSEMTDDDNEFAYGSGHLNATKVRDPGLVYETHYQDYIDYLCKLGYNTEKLRSHVGSDKIDCSKTEIDHDADLNYPTMTARVPLPLDTPFKKVFHRTVTNVNDGEFTYLREINYRGDKDFDEIIVDPPQLKFSELGETKTFTVTVTGISKRNWNKNRAFMTRNTWLTWTEKDGSRQVRSPIVIYSIKGPKACM”, the protein production result is “failed”.

For the sequence “MAIAPTIQPLPAPWVARMAAGEVIDSLAAVVRELCENSLDAGTQRLVIDLWPEQWRVRVADDGMGLSLENLQLAALAHTSSKLSPDRFTAEQLGFRGEALHSLARLGRLTIASRTADAAAGWQISYDIGGQPQVATPIAIAPGCIVEVQQLFQDWLERRQSQPSPAQQLRAVQQQIQNLVLAHPSITVQVTQNDRPWLAFAPVHHPQERLLQLLPNTSPADWRSQSLDLGSEGQLQVVVGLPDRCHRRRPDWVKVAVNGRVVRVSELEQAMIGALHRSLPRDRFPVVFAHLQVPPSQVDWHRHPAKAELFLQDLPVWCERIQEAIAQTLPLDPAEEIELPASTALLRVAETTGSYSESPSHLRAIAQVLNTYVLAEQGDSLWLIEQHIAHERVLFEQLQDDWQLVACQQPILLSKLSLEQRLQLDRLGITAEDFGEDLWAIRHIPAALAQREDLVEALLELSRGWDLSAAQAAIACRTAIRNGTLLYPEEQQTLIDRWQHCRQPRTCPHGRPIALVLPETSLARYFRRQWMIGRSHGLGDP”, the protein production entry is recorded as “failed”.

Consider “MAICKVFRNYCKENDIQLHQANFSLSYDTNIPRQTGLSGSSAIVSAALNCLLDFYNVRHLIKVQVRPNIVLSAEKELGIVAGLQDRVAQVYGGLVHMDFSKEHMDKLGHGIYTPMDISLLPPLHLIYAENPSDSGKVHSMVRQRWLDGDEFIISSMKEVGSLAEEGRTALLNKDHSKLVELMNLNFDIRRRMFGDECLGAMNIEMVEVARRVGAASKFTGSGGAVVVFCPEGPSQVKLLEEECRKAGFTLQPVKIAPSCLNDSDIQTL”, for which the protein production entry is “failed”.

Turning to “MAIDVCCSEASGSGISPRISFSYDLDSTDDGEVRLDSTLLDSGSEFDFCFGSSCSVQEVSPADELFSEGKILPVQIKKEESLPQTVTFRVPRSASLSSSSSSSSSSSSSSRAPEKKMRLKELLLNPESDFEDKPRGLFLQFKRSISLNYDKSRNSKGLIRSFHFLSRSNSTPNPNLDLLPKETHHPHKTHNLPKHKPPLRRSSSLSSSSVPFYSKKPLGRNSFGNGNGGVRVSPVLNFPPPAFISNVADGFFSIGSLCNGKTNTKTKL”, the protein production result is “failed”.

As to “MAIEPSLISSLTWFAHVARHRSFTKAASEMGVTRAALSQHVKGLEKQLQVRLLNRTTRNMSLTEEGQRLLDTLHPSLSNIEQTLNSLNDLHIEPAGLIRISVSRTAARLLIEPHLGEFLSRYPKIRLELIMDDGLTNIVAEGMDAGIRLGVSLDEHMVAIPITPNLTNAIVGSPDYFKRYGKPETPNDLEHHNCLAYRFTSSGTLDHWSLTSPDVDKHTVIFEPKGNAVFNDDYSMLQAAMQGVGLIKHIDLWVLKYLEEGKLERVFVDWCKPFPGFYLYIPSRENMPKKIRVLMDFLIEKRAEL”, the protein production entry is “failed”.

Turning to “MAIGERIRFFRNLRGMTQKYLGTVVGFPENTADIRMAQYESGSRTPKADLTENLAGVLGVSPLALSVPDIDSYLGLMHTLFTLEDRYGLTIEKGENGVSMCVDPRKGKDAAELSEMLNAWAKQAEKYHNGDISRELEHHHHHH”, the protein production entry is recorded as “not failed”.

Regarding “MAIHVGIIDQDPVRLVTPLLDHRTVSRHIIFIGDHTQTVIYQRLSDVLNKRNISTDFFEIPAGSNTSAIKSAIRELAETLKARGEEVKFNASCGLRHRLLSAYEVFRSYHWPIFVVEPNSDCLCWLYPEGNNDTQVQDRITIADYLTIFGARGEFNEHQLSPQLDQQLYQLGERWASNALELGPGLATLNYLATTCRKEQKLDVELSDKQQGYRELNLLLSDLVEAKIASYENGILTFINEEARRFANGEWLETLVHSTVKQIQDDMPTIQDRSLNVQVYRQLGEREVRNELDVATVVNNKLHIIECKTKGMRDDGDDTLYKLESLRDLLGGLQARAMLVSFRPLRHNDITRAEDLGLALIGPDELKDLKTHLTQWFKAAGGN”, the protein production entry was “not failed”.

As to “MAIKITPDEFSLLIQRLNKKWRVFAPSAEFRGGRFSDTDNIIYQRISGWRDLIWHEKSHMSPNTIIAPITETLFYFDKDTIQIAETDTSPIIIFARACDINAMSRLDYMYLSNGNNSDYSYQLLREHIRFVLIECEKSFENCFCVSMGTNKTDCYSAAMRFSDEGALVSIRDPFIEAAIQGLGQEADYTPSFVSENRETVVTPDSVCRDPQKIRDILTRHPLWDAYDSRCISCGRCTTGCPTCTCYSVFDVAYDENPQRGERRRQWASCMVPGFSDMAGGHGFREKPGERLRYRALHKVNDYKARNGIEHMCVGCGRCDDRCPQYIKFSLIINKMTAAVRQALAEEA”, the protein production result is given as “failed”.

For the sequence “MAIKSISSSLLTRVLSVYFLLTLIVTAIQIGAEYFDTKRVLIAELQNQQSTFNGSLTRSLWEFNSNQIDTIADGLISIPAIAGVLIRDDAGNILVQLGETTEMSDLPDDNSEGALLPERNGIFGYYDSLIFEFSGHSTKVGDVSLFSTRDIAIDRIKVSLGFIIGNAIIKSIFLIVLFTIAFNRMLNRPLSDLTQQIKGFRLDNLERSRIRLDDQHNNELVLVEQAYNQLLDNIEEYQSDLDRTQKKLKAANRQLDEQNAILEQEVARKTSSLSQVMLDLEQRKNELEMRQEKLEREVGQRRAIENTLRQSNQRLESSLNNLRETQQQLIESEKMASLGGLVAGITHDVNTPIGISVTASSYLREKLDTLDQSLLNKELTQTQLKKFIEEGRESLNLLDSNLHRASDLISSFKQVAVDQASDAIRDINLKSYIEDLVQSLQPHLKKTNHQVRLECADDIFIRCPAGALSQIFTNLILNSLRHAFDGISEGLMIISIRLDGETLQVHYSDNGNGLSEAQLKRLFDPFFTTKRDQGGSGLGTHIVRNLVTQTLSGEISAESEPGKGLSYFFSFSVQVLN”, the protein production entry is “failed”.

For “MAILLALIPIMMIFICLFLFKQTSLRSSLIAYVVSVGIVLLSPMFQLGISETVHATIKGSLICFIVGYVLFFGIFLFHLMNKMGYIDQVARFLEEVTHDRLLQMLLMCFGICPLIESVSGFGIGFMVAAPIFLSLGYKPFQAVLLSFIGLLASSWGAMATGTIIGSQLINMPLTTLGTNTALLSIPMFAYFVILSLHVVGGWQAVIEKWKEGIGFFLLFSLGIYLSNAYVSVELAGILSSIVTITFGFLIIKLKGKSEQNLMSEHAAATEREVSIIKIISPYIFLTVCILLSRLVPALHDVFRSYAVLDLKSFSYKLEMLYSPGFWLGMTCLFTIIFFRIPSNIIKQSLSQTIKQWIPFAITTTMFIAISELMGASGMHSLLAKTAGETFGTFFVFVAPFIGGIGGFLTGSNAGSNAMFIKLQMQTAQNVALPWQYVTTLQNTASSVATIACPSRITLGAYLCNIPYRENELLKKTTLMIFGAVLLIVVEVIFWYMLRN”, the protein production entry was “failed”.

As to “MAINLNDYKRVAQNLKVNKKNMREFLFDFRVNGKRYRKVETLIERTGWNKKDYEREAQLLLIDYRKKVEANTGNLQITSNTRLNELWELYFQTLDKSTSWTFTKESFYNRYLKEPLGKKKLDSIQEHHIMAIIRHLQAEGMATRTVNTTLEILRPLFDFAIKNKALRDNPTRFIVLKKDNTKKIVINGAEMFKRIFEGINDYYSSQPFYRALFLFGFTGRRKGEILKLKWENIDLDNNYYWIEDTKNNEKQKYELPHFIKEALLQIQDTHTGLVFKSPVTGRMLENTDGQMNKLKKHLNMPELTLHYMRNVLVSALAERGTEAITLSGMLGHRDATTINKYLSLSYHNSSKKGNATMGQIIDAEVVE”, the protein production entry was “failed”.

For the sequence “MAIQLKKGNRISLKKEAPGLKKVMLGLGWDMATSSSGGGFFGIFKKPAGSIDLDSGVLCLDSQGKLNSASDFVYYANLNHKSGAIAHQGDNLTGAGEGDDEQIFVDLEQVPATIQSLLFTVTIYQGRQRGQEFGQIKNAFVRLVDLSNNQEIAHYKLSGETYQGKTGMLMAELRREENGWAMTALGDGLDPQDSENLLKKYR”, the protein production result is “failed”.

In the case of “MAIQVKASLRKNPQDKKAAGKYYAQVVLAPEMTQRQIIDQIADRCTVTGSDVKAVLDALMTVIKRNLANGSPIRLGDLGSFRPSVSGIGSENVDKFTASNVKKARVIYVPSAEIKEAVAMYAFSKVGATAEGGNTEKPGGGDIDNPGGGDEEAPDPTVLEHHHHHH”, the protein production result is given as “not failed”.

For “MAKAFEEQRRSPDLEALPFEDRIGLLVDREAAERDTRRLTTRLKIAALRQTACVEDVDLRTPRGIDRAVFAKLVEGRWIDRHENLLVTGATGLGKSWLACALGHKACRDNRSVLYHRVPRLFEALALARGDGRYARLLKSLGRAQLLILDDWGLSVLTAAERRDLLEILEDRHGRASTIVTSQLPWTPGMEPLGTPRSPTPFSIASSTTPTASSSPEKACENAAPKPSPLTANQNTDSISHRPLEHHHHHH”, the protein production entry was “failed”.
